Data on two proteins can be found in patent US20050032185.

In data set [1] the target is GST-PKBα (full length human protein kinase Bα with N-terminal glutathione S-transferase, from unstimulated 293 cells) [GST: P08515].
Chain of GST-PKBα (full length human protein kinase Bα with N-terminal glutathione S-transferase, from unstimulated 293 cells) [GST: P08515] (P08515 whole entry, looked up): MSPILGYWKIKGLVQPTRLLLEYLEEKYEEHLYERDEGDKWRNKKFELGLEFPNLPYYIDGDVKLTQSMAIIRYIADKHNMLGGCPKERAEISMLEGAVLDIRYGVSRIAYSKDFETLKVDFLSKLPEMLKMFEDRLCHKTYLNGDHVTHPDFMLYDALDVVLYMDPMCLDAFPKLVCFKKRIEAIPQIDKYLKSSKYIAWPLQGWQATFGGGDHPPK

Chain of protein kinase Bγ (Q9Y243 2-479): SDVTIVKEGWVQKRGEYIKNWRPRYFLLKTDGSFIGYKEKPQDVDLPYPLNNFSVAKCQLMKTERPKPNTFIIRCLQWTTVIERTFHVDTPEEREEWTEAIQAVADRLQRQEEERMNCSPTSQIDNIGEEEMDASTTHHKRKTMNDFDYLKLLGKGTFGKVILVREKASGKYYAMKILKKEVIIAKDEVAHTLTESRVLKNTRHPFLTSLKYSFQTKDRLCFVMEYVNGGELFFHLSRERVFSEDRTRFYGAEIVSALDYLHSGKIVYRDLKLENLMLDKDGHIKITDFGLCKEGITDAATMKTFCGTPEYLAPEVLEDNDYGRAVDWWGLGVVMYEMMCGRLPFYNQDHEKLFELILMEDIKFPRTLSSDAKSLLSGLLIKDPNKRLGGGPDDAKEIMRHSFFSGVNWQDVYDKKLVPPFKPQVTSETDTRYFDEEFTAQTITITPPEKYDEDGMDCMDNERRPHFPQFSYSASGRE

B1: PDK1 (form and source not specified in the sentence) (enzyme, UniProt O15530 1-556, looked up, species assumed)
3-phosphoinositide-dependent protein kinase 1: MARTTSQLYDAVPIQSSVVLCSCPSPSMVRTQTESSTPPGIPGGSRQGPAMDGTAAEPRPGAGSLQHAQPPPQPRKKRPEDFKFGKILGEGSFSTVVLARELATSREYAIKILEKRHIIKENKVPYVTRERDVMSRLDHPFFVKLYFTFQDDEKLYFGLSYAKNGELLKYIRKIGSFDETCTRFYTAEIVSALEYLHGKGIIHRDLKPENILLNEDMHIQITDFGTAKVLSPESKQARANSFVGTAQYVSPELLTEKSACKSSDLWALGCIIYQLVAGLPPFRAGNEYLIFQKIIKLEYDFPEKFFPKARDLVEKLLVLDATKRLGCEEMEGYGPLKAHPFFESVTWENLHQQTPPKLTAYLPAMSEDDEDCYGNYDNLLSQFGCMQVSSSSSSHSLSASDTGLPQRSGSNIEQYIHDLDSNSFELDLQFSEDEKRLLLEKQAGGNPWHQFVENNLILKMGPVDKRKGLFARRRQLLLTEGPHLYYVDPVNKVLKGEIPWSQELRPEAKNFKTFFVHTPNRTYYLMDPSGNAHKWCRKIQEVWRQRYQSHPDAAVQ
As to B1, the phosphorylation and activation entry in the data set on protein kinase Bβ is “PDK1 phosphorylates and activates not only PKBα but also PKBβ and PKBγ”; in the data set with protein kinase Bγ, “PDK1 phosphorylates and activates not only PKBα but also PKBβ and PKBγ”. Moreover, in the data set with p70 S6 kinase, the phosphorylation result is “PDK1 has been shown by us to phosphorylate p70 S6 kinase in the absence of InsPtd(3,4,5)P3”.

B2: GST-DSTPK61 (residues 1-752 of Drosophila Serine/Threonine Protein Kinase-61, expressed in E. coli) (protein)
chain: MKCKSWSNKINNYVVRKIKSIKINGTQQQLQLPGSGASGIAAAAVITVASDCGENCSSNGTEHQQHFNIATTTATSATEATMPAMAKEKASATVSLGESNFRDINLKDLAVVVEAASRLHHQQNVCGCGAVSSTENNNNSRYGSSKYLTNGHTSPLAAAVASNSSSVATTPHCRMLHNCSLQQYQNDIRQQTEILDMLRQQHQQGYQSQQQQQQPQQQQEQQQQQEQSQQQQQLQNPAPRRSPNDFIFGRYIGEGSYSIVYLAVDIHSRREYAIKVCEKRLILRERKQDYIKREREVMHQMTNVPGFVNLSCTFQDQRSLYFVMTYARKGDMLPYINRVGSFDVACTRHYAAELLLACEHMHRRNVVHRDLKPENILLDEDMHTLIADFGSAKVMTAHERALATEHCSEQRRSNSDEDDEDSDRLENEDEDFYDRDSEELDDGDDEQQQEEMDSPRHRQRRYNRHRKASFVGTAQYVSPEVLQNGPITPAADLWALGCIVYQMIAGLPPFRGSNDYVIFKEILDCAVDFPQGFDKDAEDLVRKLLRVDPRDRLGAQDEFGYYESIRAHPFFAGIDWQTLRQQTPPPIYPYLPGVSQDEDFRSSYTVPGDLEPGLDERQISRLLSAELGVGSSVAMPVKRSTAKNSFDLNDAEKLQRLEQQKTDKWHVFADGEVILKKGFVNKRKGLFARKRMLLLTTGPRLIYIDPVQMIKKGEIPWSPDLRAEYKNFKIFFVHTPNRTYYLDDPEGYAIHW
As to B2, in data set [1], the “increase in GST-PKBα activity at maximal phosphorylation” value is “paralleled by a 35 fold increase in activity”, the “maximal phosphorylation of GST-PKBα (mol phosphate per mol protein)” value was “the phosphorylation of GST-PKBα reached 0.75 mol phosphate per mol protein” and the “specific activity towards GST-PKBα in the presence of PtdIns(3,4,5)P3” value is “bacterially expressed GST-DST PK61 (280 U/mg)”.
